Source: the nanobody polyreactivity screen of Harvey et al. (2022)

Experiment: yeast display, Sf9 membrane polyspecificity reagent, FACS + sequencing; frameworks hold sequencing errors
How it was run: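 Polyreactivity labels are assigned by the sorting gate from which each nanobody was recovered. The gates were low and high (top ~1%), set on anti-HA fluorescence for expression and streptavidin fluorescence for reagent binding. Before sorting, galactose-induced (36–48 hours) yeast display cells were stained for 1 hour at 4 °C with 10% biotinylated, detergent-solubilized Sf9 membrane reagent.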

QVQLVESGGGLVQAGGSLRLSCAASGRTFLHNAMGWYRQAPGKERELVAAISSRGGSTYYADSVKGRFTISRDNAKNTVYLQMNSLKPEDTAVYYCAAYIYGTYYYWGQGTQVTVSS
polyreactivity (PSR sort gate): high polyreactivity

QVQLVESGGGLVQAGGSLRLSCAASGLTFAYYAMGWYRQPPGKERELVAAITSGDGTNYADSVKGRFTISRDNAKNTVYLQMNSLKPEDTAVYYCATDTWSPGYDYWGQGTQVTVSS
polyreactivity (PSR sort gate): low polyreactivity

QVQLVESGGGLVQAGGSLRLSCAATGSIFDYNAMGWYTQAPGKERELVAALTSGGSTNYADSVKGRFTISRDNAMNTVYLQMNSLKPEDTAVYYCAADHDYYPSNLDYWGQGTQVTVSS
polyreactivity (PSR sort gate): low polyreactivity

QVQLGESGGGLVQAGGSLRLSCAASGGTFTSYAMGWYRQAPGKERELVAGITSSGGNTYYADSVKGRFTISRDNAKNTVYLQMNSLKPEDTAVYYCAAKSGRGRTMDYWGQGTQVTVSS
polyreactivity (PSR sort gate): high polyreactivity

QVQLVESGGGLVQAGGSLRISCAASGSTLYRNAMGWYRQAPGKERELVAAISRTGGRTYYADSVKGRCTISRDNANNTVYLQMNSLKPEETAVYYCNTLTPSYTSGTHTFYSWGQGTQVTVSS
polyreactivity (PSR sort gate): high polyreactivity

QVQLVESGGGLVQAGGSLRLSCAASGFTFRVNAMGWYRQAPGKERELVAAISSGGSTNYADSVKGRFTISRDNAKNTVYLQMNSLNPEDNAVYYCAKRFKYIYYWGQGTQVTVSS
polyreactivity (PSR sort gate): high polyreactivity

QVQLVESGGGLVQAGGSLRISCAASGFIFKKNAMGWYRQAPGKERELVAAITSSGGSTYYADSVKGRFTISRDNAKNTVYFQMNSLKPEDSAVYYCARDKEQQGYRLFGYWGQGTQVTVSS
polyreactivity (PSR sort gate): high polyreactivity

QVQLVDSGGGLVQAGGSLRLSCAASGSTFSSYAMGWYRQAPGKERELVDVITRGTSTNYADSVKGRFTISRDNAKNTVYLQMNSLKPEDTAVYYCNSRRGSRRFGYCGQGTQVTVSS
polyreactivity (PSR sort gate): high polyreactivity

QVQLEESGGGLVQAGGSLRLSCAASGITFEYYAMVWYRQAPGKERELVAANDTGGSTNYADSVKGRFTISRDNAKNTVYFLMNSLKPEDTEVYYCAADWSWWDGEDYHFEYDYWGQGTQVTVSS
polyreactivity (PSR sort gate): low polyreactivity

QVQLVESGGGLVQAGGSLRLSCAASGSILEVYAMGWYRQAPGKERELVAAISDGDSTYYADSVKGRFTISRDNAKNTVYLQMNSLKPEDTAGYYCAAEFVGTLWWYDYWGQGTQVTVSS
polyreactivity (PSR sort gate): low polyreactivity

QVQLVESGGGLVQAGGSLRLSCAASGSTFGGYAMGWYRQAPGKEREFVAAISWRGGGTYYADSVKGRFTISRDNAMNTVYLQMNSLKPEDTAVYYCAAERRYTYQYNYWGQGTQVTVSS
polyreactivity (PSR sort gate): high polyreactivity

QVQLVESGGGLVQAGGSLRLSWAASGSTFDSNGMGRYRQAPGKERELVATITSRGASTNYSDSVKGRFTISRDNAKNTVYLEMNSLKPEDTAVYYCNREVPWWLYKYVGHDYWGQGTQVTVSS
polyreactivity (PSR sort gate): low polyreactivity

QVQLVESGGGLVQAGGSLRLSCAASGSIFSFYAMGWYRPAPGKERELVAAISYRGGSTYYADSVKGRFTISRDNAKNTVYIQMNSLKPVDSAVSYCAAARFPVFIQGYRMEYWGQGTQVTVSS
polyreactivity (PSR sort gate): low polyreactivity

QVQLVESGGGLVQAGGSLRLSCAASGLTLTYYAMGWYRQAPGKERELVAAISSSGGSTYYADSVKGRFTISRDNAKNTVYLQMNSLKPEDTAVYYCAATRVSWTGRDDYWGQGTQVTVSS
polyreactivity (PSR sort gate): high polyreactivity

QVHLVESGGGLVQAAGSLRLSCAASVSTIPPNAMGWDRQAPGKEREFVAAISSVGSSYYADSVKGRFTISRDNAKKTFYLQMNSLKPEDTAVYYCAKGSWYWVEPYDYWGLGTQVTVSS
polyreactivity (PSR sort gate): high polyreactivity

QVQLVESGGGLVQAGGSLRLSCAASGSTSYLYPMGWDRQAPGKERELVAAISWNGGSTYYADSVKGRFTISLDNAKNTVYLQMNSLKPEDTAVYYCAASVHATSFSGGRHWFKLYYWGQGTQVTVSS
polyreactivity (PSR sort gate): high polyreactivity

QVQLVESGGGIVQAGGSLRLSCAASGSTFFSNTMGWYRQAPGKERELVAAITSRGGRTYYADSVKGRFTISRDNAKNTVYLQMNSLKPEDSAVYYCADRFVLHGVYLKFYWGQGTQVTVSS
polyreactivity (PSR sort gate): high polyreactivity

QVHLVESGGGLVQAGGSLRLSCAASGIIFGGNVMGWYRQAGGKERELVAAITWSGGTTYYADSVKGRFTISRDNAKNTVYLQMNSLKPEDTAVYYCAADRFYLDYVAGTYDYWGQGTQVTVSS
polyreactivity (PSR sort gate): low polyreactivity

QVQLVESGGGLVQAGGSLRLSCASSGLIFSIYAMGWYRQAPGKERELVAAIRWSGGSTYYADSVKGRFTISRDNAKNTVYLQMNSLKPEDTAVYYCNADITVYVRIYQYNYCGQGTQVTVSS
polyreactivity (PSR sort gate): low polyreactivity

QVQLVESGGGLVQAGGSLRLSCAASGFILPVYAMGWYRQAPGTERELVAAISSGGSTNYADSVKGRFTISRDNAKNTVYLQMNSLKPEDTEVYYCNKVDWYFGGYKYDYWGQGTQVTVSS
polyreactivity (PSR sort gate): low polyreactivity

QVQLVESGGGLVQAGGSLRLSCAASGSIFGVNAMGWYRQAPGKERELVADITKSTGDTYADSVKGRFTISRDNAKNTVYLQMNSLKPEDTAVYYCNARFTVKQKRLYLYDYWGQGTQVTVSS
polyreactivity (PSR sort gate): low polyreactivity

QVQLVESGGGLVQAGGSLRLSCAASGIIFEGNVMGWYRHAPAKERELVAAITSDTSTNYADSVKGRFTISRDNAKNTVYLQMNSLKPVDTAVYYFNAVICTDYYYSGTAEFYYWGQGTQVTVSS
polyreactivity (PSR sort gate): low polyreactivity

QVQLVESGGGLVQAGGSLRLSCAASGRTFSYYAMGWYRQAPGKERELVASIRKSGASTYYADSVKGRFTISRDNAKNTVYLQMNSLKPEDTAVYYCNTAGWSFYSGRYDYWGQGTQVTVSS
polyreactivity (PSR sort gate): high polyreactivity

QVQLVESGGGLVQAGGSLRLSCAASGRTFRWYAMGWYRQAPGKERELVASITWSGGSTYYADSVKGRFTISRDNAKNSVYLQMNSLKPEDTAVYYCNRVLGVSLYEGNYWGQGTQVTVSS
polyreactivity (PSR sort gate): high polyreactivity

QVQLVESGGGLVQAGGSLRLICAASGFISNINVMGWYRQAPGKERELVAAITYIDGSTFYADSVKGRFTISRDNAKNTVYLQMNSLKPEDTAVYYCAKTRVRGSEFGYWGQGTQVTVSS
polyreactivity (PSR sort gate): low polyreactivity

QVQLVESGGGLVQAGGRLRLSCAASGFIFRPYAMGWYRQAPGKERELVPTISYRGGSTDYADSVKGRFTISRDNAKNTVYLQMNSLKPEDTAVYYCNAGYNRGYYYPVFAFFPYEYWGQGTQVTVSS
polyreactivity (PSR sort gate): low polyreactivity

QVQLVESGGGLVQAGGSLRLSCAASGTYTNAMGWYRQAPGKERELVAAISSTVGRTYYADSVKGRFTISRDNAKNPVYLQMNSLKPEDTAVYYCATTHGRTYYYWGQGTLVTVSS
polyreactivity (PSR sort gate): high polyreactivity

QVQLVESGGGLVQAGGSLRLSCAASGSIFGGYAMGGYRQAPGKERELFARITDRGGSTDYADSVKGRFTISRDNAKNTVYLQMNRLKPEDTAVYYCAKRGDRYEKRPRDYWGQGTQVTVSS
polyreactivity (PSR sort gate): low polyreactivity

QVQLVESGGGLVQAGGSLRLSCAASGRIFFPNPMGWYRQAPGKDREFVAGITVSGGSTYYADSVKGRFTISRDNAKNTVYFQMNSLKPEDTAVYYCGAYWAQGTRYEYRLNYWGQGTLVTVSS
polyreactivity (PSR sort gate): low polyreactivity

QVQLEESGGGLVQAGGSLRLSCAASGSTFVYYARGWYRQAPGKERELVAAITTRGGSTYYADSVKGRFTISRDNAKNTVYLQMNSLKPEDTAVYYCATKWPVYPTGYDYWGQVTQVTVSS
polyreactivity (PSR sort gate): low polyreactivity

QVQLVESGGGLVQAGGSLRLSCAASGRIFDYYPKGWYRQAPGKERELVAAISVRGGSTYYADSVKGRFTISRDNAKNTVYLQMNSLKPEDTAVYYCAARSWPHRTYYYWGQGTQVTVSS
polyreactivity (PSR sort gate): high polyreactivity

QVQLVESGGGLVLAGGSLRLSCAASGSTFFTNVMGWNRQAPGKERELVASITSGGSTNYADSVKGRFTITRDNAQNTVYLQMNSLKPEDTAVYYCAAVTRTITIYELDSWGQGTQVTVSS
polyreactivity (PSR sort gate): low polyreactivity

QVQLVESGGGLVQAGGSLRLSCAASGSNFSSYALGWYRQAPGKERELVAAITSGGSTYYADSVKARFTISRDNAKNTVYLQMNSLKPEDTAVYYCNADISRDNDFDYWGQGTQVTVSS
polyreactivity (PSR sort gate): low polyreactivity

QVQLVESGGGLVQAGGSLRLSCAASGSIFYRYAMGWYRQAPGKVRELVAAINNGGGRTYADSVKGRFTISRDNAKNTVYFQMNSLKPEDTAVYYCAKRTSRLAPYDYWGQGTQVTVSS
polyreactivity (PSR sort gate): high polyreactivity

QVQLVESGGGLVQAGGSLRLICAASGGIFDFYAMGWYRQAPGKERELVAAITRSGSSTFYADSVKGRFTISRDNAKNTVYLQMNSLKPEDTAVYYCAAPYYYFAVYYGYIFEYDYWGQGTQVTVSS
polyreactivity (PSR sort gate): low polyreactivity

QVQLVESGGGLVQAGGSLRLSCAASGLTFGYYVMGWYRQAPGKERELVADINFSGGSTYYADSVKGRFTISRDNAKNTVYLQMNSLKPEDTAVYYCNGVVYRFTVSTGYESWGQGTQVTVSS
polyreactivity (PSR sort gate): low polyreactivity

QVQLVESGGGLGQAGGSLRLSCAASGRIFVGYAMGWYRQAPGKERELVAAIDVGGGSTYYADSVKGRFTISRDNAKNTVYLQMNSLKPEDTAVYYCAADAFGWSSYWPYDYWGQGTQVTVSS
polyreactivity (PSR sort gate): low polyreactivity

QVQLVESGGGLVQAGGSLRLTCAASGRIFALYAMGWYRQAPGKERELVAAITSGSTYYADSVKGRFTISRDNAKNTVYLQMNSLKPEDTAVYYCAADANYYPTEYYPFDYWGQGTQVTVSS
polyreactivity (PSR sort gate): low polyreactivity

QVQHVESGGGLVQAGGSLRLSCAASGSIFYIYAMGWYRQAPGKERELVAAISGSGSTYYADSVKGRFTISRDNAKNTVYLQMNSLKPEDTAVYDCAVELWRFWGAYTYTYDYWGQGTLVTVSS
polyreactivity (PSR sort gate): high polyreactivity

QVQLVESGGGLGQAGGSLRLSCAASGRTFRYYAKGWYRQAPGKERELVAAINRGGSTSYADSVKGRFTISRDNAKNTVYLQMNSLKPEDTAVYYCNVDKYRLVGFHSPYDYWGQGTQVTVSS
polyreactivity (PSR sort gate): high polyreactivity

QVQLVDSGGGLVQARGTLRLSCAASGSTFRVYAMGWYRQAPGKEMELVAAISSSGGITYYADSVKGRFPISRDNAKNSVYLQMNSLKPEDTEVYYCAKGTVIHVLYDYWGQGTQVTVSS
polyreactivity (PSR sort gate): low polyreactivity

QVQLVESGGGLVQAGGSLRLSCAASGSIFYYNAMGWSRQAPGKERELVAGIRRSGDSTYYADSVKGRFTISRDNAKNTVYLQMNSLKPEDTAVYYCAAYLYLEYYYWGQGTQVTVSS
polyreactivity (PSR sort gate): low polyreactivity

QVQLVESGAGLVQAGGSLRLSCAASGHTFYYNTMGLYRQAPGKERELVAVISWSGSRTYYADSVKGRFTISRDYAKNTVYLQMNSLKPEDTAVSYCNAVYSHRREYWGEGTQVTVSS
polyreactivity (PSR sort gate): high polyreactivity
